# Source: PMC11745445 (2024)
# B1: LV-MKK3-His-WT (His-labeled wild-type MKK3) in HT-22 cells [not stated] / RAGE (receptor for advanced glycation end products), endogenous in HT-22 cells [mouse (endogenous in HT-22)] (parent complex)
# chain 1: MESPAASPPASLPQTKGKSKRKKDLRISCVSKPPVSNPTPPRNLDSRTFITIGDRNFEVEADDLVTISELGRGAYGVVEKVRHAQSGTIMAVKRIRATVNTQEQKRLLMDLDINMRTVDCFYTVTFYGALFREGDVWICMELMDTSLDKFYRKVLEKNMKIPEDILGEIAVSIVRALEHLHSKLSVIHRDVKPSNVLINKEGHVKMCDFGISGYLVDSVAKTMDAGCKPYMAPERINPELNQKGYNVKSDVWSLGITMIEMAILRFPYESWGTPFQQLKQVVEEPSPQLPADQFSPEFVDFTSQCLRKNPAERMSYLELMEHPFFTLHKTKKTDIAAFVKEILGEDS
# chain 2: GQNITARIGEPLVLSCKGAPKKPPQQLEWKLNTGRTEAWKVLSPQGGPWDSVARILPNGSLLLPATGIVDEGTFRCRATNRRGKEVKSNYRVRVYQIPGKPEIVDPASELTASVPNKVGTCVSEGSYPAGTLSWHLDGKLLIPDGKETLVKEETRRHPETGLFTLRSELTVIPTQGGTHPTFSCSFSLGLPRRRPLNTAPIQLRVREPGPPEGIQLLVEPEGGIVAPGGTVTLTCAISAQPPPQVHWIKDGAPLPLAPSPVLLLPEVGHEDEGTYSCVATHPSHGPQESPPVSIRVTETGDEGPAEGSVGESGLGTLALALGILGGLGVVALLVGAILWRKRQPRREERKAPESQEDEEERAELNQSEEAEMPENGAGGP
# Variants of: B1
# Assay: co-IP (IP: RAGE, IB: MKK3-His) followed by western blotting, optical density; hippocampus of MKK3-knockdown db/db mice; n = 4 in each group; parent: 3.1; read off a plot
row,Variant,response
1,chain 1 K329A,~1.4 fold change relative to the db/db + MKK3-shRNA group

# Variants of: B1
# Assay: co-IP (IP: MKK3-His, IB: RAGE) followed by western blotting, optical density; hippocampus of MKK3-knockdown db/db mice; n = 4 in each group; parent: 1.7; read off a plot
row,Variant,response
1,chain 1 K329A,~1.1 fold change relative to the db/db + MKK3-shRNA group

# Variants of: B1
# Assay: co-IP (IP: MKK3-His, IB: RAGE) followed by western blotting, optical density; MKK3-knockdown HT-22 cells, high-glucose stimulation 24 hours; n = 4 in each group; parent: 4; read off a plot
row,Variant,response
1,chain 1 K329A,~1.4 fold change relative to the HG + MKK3-shRNA group

# Variants of: B1
# Assay: co-IP (IP: RAGE, IB: MKK3-His) followed by western blotting, optical density; MKK3-knockdown HT-22 cells, high-glucose stimulation 24 hours; n = 4 in each group; parent: 3.4; read off a plot
row,Variant,response
1,chain 1 K329A,~1.1 fold change relative to the HG + MKK3-shRNA group
